Measured values: the domain aggregation screens of Martell et al. (2025)

Test: soluble fraction after stress (log2 fold change); higher = more stays soluble; pooled small domains, quantitative proteomics
Details: stress: 75 degC
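Further: 20 min heating vs room temperature control held 20 min.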

Sequence	soluble fraction (log2)
HMRKKDGEAYVLPRPLKKGDSVLIYDIDKKGTVLQPPEKGGKTALIQAGIIQTRVPVSNLRLLE	0.537
HMRKKIIAQTLEEIRKSKGYSQKQVAAFIKVKPTTYNTYESGRTEPPAEILVRLSYLYRTPVDTLVQRDR	-2.13
HMRKMNDAVFYVEMSRPKRGYYTATYKLITRNPNSLPEHEITRRFFQMLEETIRKNPPYYLWTH	-0.527
HMRKPISQEIVDEVLKLAKNNPDWGYDRIAGVMKYLKYDVSATTVRHILDDNGIVPDPERRLR	0.23
HMRKRLLQLVHIGKSQLGMDDETYRSLLSQQFYQNSAKNISYSELVKLVKILQQKGAKIRLPH	-2.17
HMRKVVLEEKEANYYAEPNSESELLGVLKRGIHLTVTDVKKEAGSDGWVKLVHPDGQEGWISGRARIRV	-0.212
HMRKYKIKEELPDNIYKIIQDNPGIVQKDIYDILGREYQQNISSYIYSMDKNGVIKRDKHGNSYKLYL	-0.119
HMRLATSELVYRIRALIRDQELQPGERLGSERALAQSLGISRSDLRMALAVLEASHEVIRKIGRAGGIVVS	-3.18
HMRLHSSGEDYLKAIFILEAQHSSVRSVEVAEYMNVSKASVSHAVALLKKNGFLKMNQDYDLTER	-0.163
HMRLIALPSVTDISIRQAEATLMSIGIKVSSIQYAPSEYKDLVLEVKYRGQSIIQGAKIPEGSSVVLVAGN	-3.21
HMRLPLYLALAQTLRQEIDAKQYKIGAHLPPEDQLVVKYGVSRHTVRQALQELKNEGLITSKAGIGTIVSS	-1.56
HMRLPQEVWEKIRAAYEAHGLSFSELAEMYGVNKSNISRRAKAEGWNQAETQRLITATVENE	0.374
HMRLREETRKVDKTGLIQVDGRHYRVPDEYSQKDVQILMDDNSIMVYRKGDFVIELDKETSVYMPH	0.347
HMRMETRILTADESGIRLDAFLASRLAVSRSLAASLIDDGNVTLNGTVPKKKTAVNVGDILEVAMP	-0.987
HMRMLTKRRQDLLLELLEERGSITVSEVKDMLDASESTIRRDITALDEEGKLVKVFGGAVAAR	-0.345
HMRMSRSARLFDLLHILRSHRRAVSGQALAQQLGISIRTLYRDIASLQAQGAKIEGEPGVGYMLKP	-1.82
HMRMTKQRQAVLDELTRVTDFRSAQQIFEDLHSQGHRVGLATIYRSLQGLAEDGSVDTLRSSDGESLY	-0.206
HMRMTRQRKVILEELGKVYTHPTADEIYTMVKEKLPNISLGTVYRNLDLLAENNQVLKLETAGNIRRYD	-0.17
HMRMYDVNEYSDEELHRILDLSSPTDSELEARILQMIQKYKYTNGGDNEKMAVFFENIYHHFFD	-1.65
HMRNAAGGIYGWMTLHQVAETVKLTEEEVIAITNLPAGIPRDVSLKNIEGVNDEELRALLEAYLEKQ	-1.34
HMRNISLSLRWHSGEWTADRLKSEVLALPGAMDMTVFEPQSQAYLRVEQGFDTKLLPAGIDVH	-1.31
HMRNNKLRRANKLKTEFENLPHIGKKRAHVLLKAFGSTENLKMTTAQALSEAAKISLKQAEEVLEAVRG	-0.466
HMRNQIRAVITPVPNQERYTVEMTIDDDAGNLLTLQMAAPDRQQAAEFAQRFQKHPEALYHAVLSVLL	-0.214
HMRNSFTVENTGERLDVFLTGQMPEFSRSHIQKLIASGQAWVNGVNRKGNFKLKPHDVVELEVPEPE	0.381
HMRNSVQREWIYDYIQRQDAHLSADEIYEGLLKEGKNISLATVYRNLSILVDEYKIASVMTDSKKQVYDK	-2.56
HMRNTPQRRHAILALLSEQGEVSVDALAKRFSTSEVTIRKDLAAMESHGLLLRRYGGAVPMPQELI	-1.63

Sequence	soluble fraction (log2)
HMRPEVALSSRELEILEALATGKSNKELAQRLFISEATVKTHLIHIYQKLGVDTRTAAVTVARERKL	-2.3
HMRPEVTEHLKTADAILHGGDINRQSIVDELRQYAPLYIVRGNNDKDWAEAIPHDLTVTLGGVTFFMVHNR	-0.0851
HMRPFAMNLLEKHKADIEVWLKHPNMTNTQIKRLLEELGTSVSVSSIDRFISTSFPKLPKHT	-0.121
HMRPIWVQLADDFRHRIVSGQWPPGSKIPSVRELAAETGVNPNTVQRALGALDGEGLTATERTAGRFVTT	-0.266
HMRPKVADIDYFDGKTFTIEDGSKHSITTSEAKKIYFYLVKNGYVDDESHVTDAYRSAATSGTLA	0.0416
HMRPQELSSLNTNQMRLYNSLPEAFITAEAKDIADKLRYSERSLFRFLNESNLFTKTEHGSYAKKA	0.0879
HMRPQYVDLFTKLSAEEAGAITSKLKELKVEYQLADNGSTIKVPQKDAAEIRLELANEGLPA	0.138
HMRPRQDRSEETRDRILDAVVELIAERGLAGVSHRAVADRAGVSLSATSYYFGSKAELERAALEEHYRR	-0.881
HMRPSGEAVNAAYRLLKGANPSGNEGDLIQRAQEVAAILPKLNRSSAAAFAKDAKANGLTQAETIALWKGS	0.135
HMRPTYRTRLEVLINNPAISGRDLDFAQSLLSYYERKGRLSAGRVKWVTTLEERYSPENLAASAAK	-0.856
HMRQFEPVEGYNPYADKNELHGYEYWGAKFADSRSPEETAWIKQQIDDENEDRRFISEAGLA	0.0889
HMRQQQISAAIKTSVNGTVDYYVRRLPERDPRGDFLEVWDDLQKVIQAAHGIQVSHDELYEYFRRLK	-0.833
HMRQQSLHSLYRDHHSWLQNWLRRQLGNTWDAADLSQDTFIKVLASSQSVAEIREPRAYLLTVGKRL	-0.294
HMRQSDIAAAFRESILRSSKGFQYLHTRDFVTALRRRGIHLSEVEANSWIAREKTYFVDSALDHSENRLWI	-1.65
HMRQSIHTALQLLTPREEEVLNLLVSGKSNKQVAEHFSLSSKTIERHRSSVMRKLDASSFAQLVRIAALR	-3.27
HMRQYPSGVFKEEGVKAVYIHAGTPFLVIAAQYKIPLARLFEWNNLLPSTEARISQVIYLERPG	-3.92
HMRRARVAGKGHFTGEDAMAVYRELEALFGETETLYLPGHRPFEAVLSKLALIGVPEKNTVPYTFAFVET	-0.392
HMRREIRLTVTEEIVLMKFLLTQIPYKNRDNFKTLLNDRQIRVNGSVVTWYNHPLKPGQEVTIGWFKM	-0.264
HMRRPRGVFNLVPGKRFGFITPDGGGEDVFAHLANVRAGHVAEDRNAVEYGIGRGPDGRDQAVDIVPMP	-0.329
HMRRQRNPEIFDQLVNKFHFTFTQTQQLKQLIKRWHMLFPGKSLKSAIQGYKSAKEILTYINDSLDVVE	0.213
HMRRRTLRQGATGSDVHAVQRLLNVDGAGLRTDGIFGPATERAVIAYQRKHGLAVDGVVGRETWTALLG	-0.743
HMRRSDLVTQGDEILKRLQWNQQQAKDFLNQHLKASSRQQLTDEQLLNFNMLLEEQLVKSME	0.426
HMRRSLIGPTVRERRRALGITQSRLAAEVGISASYLNLIEGDKRNIGGALLQRIAGALGLALD	-3.08
HMRRTVIVTAAHAEIRERPDANAPLVFSAEQKVSLDYQETAPGGWVKVRHRDGQSGYVRTNQI	-0.716
HMRRVGTALNRSHKVSYGESIQSIAARYNVNPTMLREYNRLKPEATITPGQILRIPPATIAS	-0.481
HMRRVRRTRRLLQDGLLGLMQHKAVADISVKELAEAADVARATVYVHFKDPADVLHQLEQGLY	0.091

Sequence	soluble fraction (log2)
HMRSDHVFTSHLARRDKYISELESLSDSARDDHIQTIKEEDEYLLKYRRTRNLFGIPLNDEMKQFEPFNY	-0.228
HMRSEILNLLREKSPQPVSGQDLANHFGITRTAVWKHIQSLKKMGYGIEAYTKKGYVLVSVPN	-0.159
HMRSGEDESFSAGLLEYPHYTRPAEFEGHRIPDILTSGDHAKVDAWRQEMSEHITRERRPDLWEMYKKK	0.13
HMRSHLSANLQRLRHIAGLTQKDLALAANLPRATLASLEQGEANPRLDTLLAVASALQVGLDELIAAP	-1.32
HMRSIMAVSNYRHKKILEMVYQRKSVSADELAAEFGVSKITIRRDLDTLAMDKLLERTRGGAISISD	-3.14
HMRSRHYRFSTPFLDRLIAEIDWNSDNALSIFNQKLVHFDFLKYFSAIQPGSIVEIENLNFIWTGKRLEAH	-3.37
HMRSVLSDEIYLLIRKMIFNYEILPGAKVNIDALAKKLDVSQTPVREALSRLESDGLIVKEPLKGFRATD	-2.72
HMRSVPNVAGLGMDGAAFQLGKAGFAIGTITPADDPKAVVGSIQRTEPAAGTVADRDTVVNLFQV	0.228
HMRSVTLQTDREGDILYVDGKQIGVSPQRLELSYGVHTIRAERGEQHTEKELEVTETGGETVVTLGFG	0.375
HMRSYTPGSAFRLSSVPVYNAETGPSIGVRSGTYYIHSLPVSNGRIRMTNLISRVGKPGQVSFWVEISR	-3.11
HMRTAELEVWDDDELNDVVKLIQNNHNINTLKLRFQENVSFSGLSLIAAVLTKQSIILEIEY	0.235
HMRTDQYHYLAWKQVADELGIPFDEQVNERLRGVSRMASFDIILERYDGTMSDEEKIHWTDKKNEIYKSM	-0.603
HMRTGLSGMIGEIGIVKQAIDPEGKVAVHGELWKARADVALAAGQTVRVVAVDGLTMTVEATDSK	-0.661
HMRTIPDALIGRPYESVETAIVLEGLQAKRTEVFHPTIRPGTVIRLEPTSGSELLRDGVVEIFVSQGPETT	0.157
HMRTITIDDSIAGKRLDEALTLLGAESSRTKVKLLFSSPNGVLVNGEKEKPHYRVEAGDVIQFGELPKK	0.541
HMRTKEGLASQLEKIPGIGPVKRKALLKKFGSIDAIAAASKEELMLTDGITSSLADAIRDYF	-0.0754
HMRTLKDSTEYLIRSMLLRGEMKVGEIYSANALAKELNISNSPVREAMMSLVDRGLLENVRNRGFRVV	-1.83
HMRTLRENIMDYFKQQTIIQKSSVILLPMSKRQLADYFGVQRPSLFRELKKLKEEGIIEINNRTITIK	-1.8
HMRTSIWTAIAHSLRSDIGSGVYGPDDKLPTESALAARFGVNRHTVRHAIKALTDEGLVLPRRGAGVFVTS	-0.241
HMRTSPGADYEKTYYTIQSGDNLGAIAEKMGVSVADLKDWNDISGTKIYAGKKLVIYVKKGST	-0.351
HMRTTTGSEGMIGSIGKAKTDLAPDGKIFIHGELWDATSSSPVSAGQKIEVTQIEGLKLHVKPVL	0.7
HMRTVLSDETYLRIREMLLTHDIAPGERINIDALARELDVSQTPVREALARLESEDLVTKEPLRGYTATK	-0.0533
HMRTYEHALTEEEKELILIVSNLSEYKSLPPSQIVPKLADLGIYIASESSFYRVLRAHNQLHHRGR	-2.75
HMRTYYEILGVSKNASLHEIQKAYRELALKYHPKNNSDPTAEEKFTQINEAYTHLSDAARRRSYDDL	0.554
HMRVGADLTQRERELLALMAQGMSNQEIAKRLEIAVPTVKFHITNILDKLQVGNRTEAVIAALEHKLVP	-0.704
